Paper PMC11286772, “Structural basis of antagonist selectivity in endothelin receptors” (Cell Discovery, 2024)

Each binder was assayed against Fab301, Fab fragment of the anti-ETA monoclonal antibody Getagozumab (assay: size exclusion chromatography). Settings: chain shown with the change;; parent: est. 0 min; read off a plot.
Sequence of Fab301, Fab fragment of the anti-ETA monoclonal antibody Getagozumab (chain, as listed by the source, chain 1 of 2): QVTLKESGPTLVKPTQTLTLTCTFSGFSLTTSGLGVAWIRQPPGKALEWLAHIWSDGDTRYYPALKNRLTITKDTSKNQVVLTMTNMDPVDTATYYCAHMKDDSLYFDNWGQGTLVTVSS
Sequence of Fab301, Fab fragment of the anti-ETA monoclonal antibody Getagozumab (chain, as listed by the source, chain 2 of 2): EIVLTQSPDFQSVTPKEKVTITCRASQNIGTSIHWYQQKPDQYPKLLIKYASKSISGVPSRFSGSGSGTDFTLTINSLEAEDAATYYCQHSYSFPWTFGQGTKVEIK

other: Δt (SEC retention time of mutant–Fab301 complex minus WT–Fab301 complex) [min] | Binder
0.019 | ETA, wild type, as used in the size exclusion chromatography analysis with Fab301, P25101 E234A (protein) DNPERYSTNLSNHVDDFTTFRGTELSFLVTTHQPTNLVLPSNGSMHNYCPQQTKITSAFKYINTVISCTIFIVGMVGNATLLRIIYQNKCMRNGPNALIASLALGDLIYVVIDLPINVFKLLAGRWPFDHNDFGVFLCKLFPFLQKSSVGITVLNLCALSVDRYRAVASWSRVQGIGIPLVTAIEIVSIWILSFILAIPEAIGFVMVPFEYRGAQHKTCMLNATSKFMEFYQDVKDWWLFGFYFCMPLVCTAIFYTLMTCEMLNRRNGSLRIALSEHLKQRREVAKTVFCLVVIFALCWFPLHLSRILKKTVYNEMDKNRCELLSFLLLMDYIGINLATMNSCINPIALYFVSKKFKNCFQSCLCCCCYQSKSLMTSVPMNGTSIQWKNHDQNNHNTDRSSHKDSMN
0.056 | ETA, wild type, as used in the size exclusion chromatography analysis with Fab301, P25101 G233A (protein) DNPERYSTNLSNHVDDFTTFRGTELSFLVTTHQPTNLVLPSNGSMHNYCPQQTKITSAFKYINTVISCTIFIVGMVGNATLLRIIYQNKCMRNGPNALIASLALGDLIYVVIDLPINVFKLLAGRWPFDHNDFGVFLCKLFPFLQKSSVGITVLNLCALSVDRYRAVASWSRVQGIGIPLVTAIEIVSIWILSFILAIPEAIGFVMVPFEYRAEQHKTCMLNATSKFMEFYQDVKDWWLFGFYFCMPLVCTAIFYTLMTCEMLNRRNGSLRIALSEHLKQRREVAKTVFCLVVIFALCWFPLHLSRILKKTVYNEMDKNRCELLSFLLLMDYIGINLATMNSCINPIALYFVSKKFKNCFQSCLCCCCYQSKSLMTSVPMNGTSIQWKNHDQNNHNTDRSSHKDSMN
0.039 | ETA, wild type, as used in the size exclusion chromatography analysis with Fab301, P25101 Y231A (protein) DNPERYSTNLSNHVDDFTTFRGTELSFLVTTHQPTNLVLPSNGSMHNYCPQQTKITSAFKYINTVISCTIFIVGMVGNATLLRIIYQNKCMRNGPNALIASLALGDLIYVVIDLPINVFKLLAGRWPFDHNDFGVFLCKLFPFLQKSSVGITVLNLCALSVDRYRAVASWSRVQGIGIPLVTAIEIVSIWILSFILAIPEAIGFVMVPFEARGEQHKTCMLNATSKFMEFYQDVKDWWLFGFYFCMPLVCTAIFYTLMTCEMLNRRNGSLRIALSEHLKQRREVAKTVFCLVVIFALCWFPLHLSRILKKTVYNEMDKNRCELLSFLLLMDYIGINLATMNSCINPIALYFVSKKFKNCFQSCLCCCCYQSKSLMTSVPMNGTSIQWKNHDQNNHNTDRSSHKDSMN
0.054 | ETA, wild type, as used in the size exclusion chromatography analysis with Fab301, P25101 R232A (protein) DNPERYSTNLSNHVDDFTTFRGTELSFLVTTHQPTNLVLPSNGSMHNYCPQQTKITSAFKYINTVISCTIFIVGMVGNATLLRIIYQNKCMRNGPNALIASLALGDLIYVVIDLPINVFKLLAGRWPFDHNDFGVFLCKLFPFLQKSSVGITVLNLCALSVDRYRAVASWSRVQGIGIPLVTAIEIVSIWILSFILAIPEAIGFVMVPFEYAGEQHKTCMLNATSKFMEFYQDVKDWWLFGFYFCMPLVCTAIFYTLMTCEMLNRRNGSLRIALSEHLKQRREVAKTVFCLVVIFALCWFPLHLSRILKKTVYNEMDKNRCELLSFLLLMDYIGINLATMNSCINPIALYFVSKKFKNCFQSCLCCCCYQSKSLMTSVPMNGTSIQWKNHDQNNHNTDRSSHKDSMN
0.026 | ETA, wild type, as used in the size exclusion chromatography analysis with Fab301, P25101 E230A (protein) DNPERYSTNLSNHVDDFTTFRGTELSFLVTTHQPTNLVLPSNGSMHNYCPQQTKITSAFKYINTVISCTIFIVGMVGNATLLRIIYQNKCMRNGPNALIASLALGDLIYVVIDLPINVFKLLAGRWPFDHNDFGVFLCKLFPFLQKSSVGITVLNLCALSVDRYRAVASWSRVQGIGIPLVTAIEIVSIWILSFILAIPEAIGFVMVPFAYRGEQHKTCMLNATSKFMEFYQDVKDWWLFGFYFCMPLVCTAIFYTLMTCEMLNRRNGSLRIALSEHLKQRREVAKTVFCLVVIFALCWFPLHLSRILKKTVYNEMDKNRCELLSFLLLMDYIGINLATMNSCINPIALYFVSKKFKNCFQSCLCCCCYQSKSLMTSVPMNGTSIQWKNHDQNNHNTDRSSHKDSMN
-0.004 | ETA, wild type, as used in the size exclusion chromatography analysis with Fab301, P25101 F229A (protein) DNPERYSTNLSNHVDDFTTFRGTELSFLVTTHQPTNLVLPSNGSMHNYCPQQTKITSAFKYINTVISCTIFIVGMVGNATLLRIIYQNKCMRNGPNALIASLALGDLIYVVIDLPINVFKLLAGRWPFDHNDFGVFLCKLFPFLQKSSVGITVLNLCALSVDRYRAVASWSRVQGIGIPLVTAIEIVSIWILSFILAIPEAIGFVMVPAEYRGEQHKTCMLNATSKFMEFYQDVKDWWLFGFYFCMPLVCTAIFYTLMTCEMLNRRNGSLRIALSEHLKQRREVAKTVFCLVVIFALCWFPLHLSRILKKTVYNEMDKNRCELLSFLLLMDYIGINLATMNSCINPIALYFVSKKFKNCFQSCLCCCCYQSKSLMTSVPMNGTSIQWKNHDQNNHNTDRSSHKDSMN
0.023 | ETA, wild type, as used in the size exclusion chromatography analysis with Fab301, P25101 Q235A (protein) DNPERYSTNLSNHVDDFTTFRGTELSFLVTTHQPTNLVLPSNGSMHNYCPQQTKITSAFKYINTVISCTIFIVGMVGNATLLRIIYQNKCMRNGPNALIASLALGDLIYVVIDLPINVFKLLAGRWPFDHNDFGVFLCKLFPFLQKSSVGITVLNLCALSVDRYRAVASWSRVQGIGIPLVTAIEIVSIWILSFILAIPEAIGFVMVPFEYRGEAHKTCMLNATSKFMEFYQDVKDWWLFGFYFCMPLVCTAIFYTLMTCEMLNRRNGSLRIALSEHLKQRREVAKTVFCLVVIFALCWFPLHLSRILKKTVYNEMDKNRCELLSFLLLMDYIGINLATMNSCINPIALYFVSKKFKNCFQSCLCCCCYQSKSLMTSVPMNGTSIQWKNHDQNNHNTDRSSHKDSMN
